Measured values taken from patent publication US20220325261.

System: beta-catenin

## GST-PTPRS D1
  tyrosine phosphorylation of immunopurified beta-catenin (Western blot): decreased tyrosine phosphorylation of immunopurified beta-catenin in the presence of GST-PTPRS D1 compared to GST alone
